The target of test [1] is T1, human Tissue Factor on MDA-MB-231 cells (human, UniProt P13726 33-295).
T1 construct: also called TF; hTF
Briefly: flow cytometry, MDA-MB-231 cells; binding of 20 nM FVII-Fc-Alexa488 (competitor) left at 9.25 nM Ab. On the technique in general: A flow cytometer gives signals particle by particle.

The target of test [2] is T1, human Tissue Factor on MDA-MB-231 cells. Briefly: flow cytometry, MDA-MB-231 cells; binding of 20 nM FVII-Fc-Alexa488 (competitor) left at 250 nM Ab.
The target is the same in test [3]. Briefly: cell-based or functional assay.
Test [4] shares this target. Description: flow cytometry, MDA-MB-231 cells; binding of 20 nM FVII-Fc-Alexa488 (competitor) left at 83 nM Ab.
Test [5] has as its target T2, rabbit TF-His (rabbit (Oryctolagus cuniculus), UniProt P24055 33-250).
T2 construct: also called rabbit TF ECD-His
Briefly: SPR (Biacore), antibody captured by anti-human IgG on CM5 chip, rabbit TF-His in solution, 1:1 model.

Test [6] addresses T3, pig TF-His (pig (Sus scrofa)).
T3 construct: also called pig TF ECD-His; pTF
T3 chain: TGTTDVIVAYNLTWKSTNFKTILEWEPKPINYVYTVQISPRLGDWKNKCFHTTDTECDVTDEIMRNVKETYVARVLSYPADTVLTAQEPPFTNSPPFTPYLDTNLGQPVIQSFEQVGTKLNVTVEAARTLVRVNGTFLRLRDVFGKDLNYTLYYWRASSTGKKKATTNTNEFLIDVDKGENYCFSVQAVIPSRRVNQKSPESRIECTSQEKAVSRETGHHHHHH
Description: SPR (Biacore), antibody captured by anti-human IgG on CM5 chip, pig TF-His in solution, 1:1 model.

Test [7] concerns the target T4, human Tissue Factor (hTF), endogenously expressed on human TF-positive cells (human, UniProt P13726 33-295).
T4 construct: also called CD142
Description: flow cytometry competition on A431 cells, 100 nM unlabelled antibody, competitor 20 nM 25A-Alexa488.

For test [8], the target named is T4, human Tissue Factor (hTF), endogenously …. Briefly: cell-based or functional assay.
The target is the same in test [9]. Description: flow cytometry competition on A431 cells, 100 nM unlabelled antibody, competitor 20 nM 43Ea-Alexa488.
Test [10] has as its target T5, Expi293-derived human TF ECD-His6 (TF-His) (human, UniProt P13726 33-251).
T5 construct: Glycosylated TF ECD-His6 made in Expi293 cells and coated on ELISA plates; also called Expi293-derived TF protein
Briefly: protein ELISA, plate coated with Expi293-derived TF-His.

In test [11] the target is T6, Macaca mulatta TF on RF/6A cells (Macaca mulatta, UniProt P13726 33-294 (human entry)).
T6 construct: also called TF-positive Macaca mulatta RF/6A cells; cynomolgus TF (cTF)
T6 chain: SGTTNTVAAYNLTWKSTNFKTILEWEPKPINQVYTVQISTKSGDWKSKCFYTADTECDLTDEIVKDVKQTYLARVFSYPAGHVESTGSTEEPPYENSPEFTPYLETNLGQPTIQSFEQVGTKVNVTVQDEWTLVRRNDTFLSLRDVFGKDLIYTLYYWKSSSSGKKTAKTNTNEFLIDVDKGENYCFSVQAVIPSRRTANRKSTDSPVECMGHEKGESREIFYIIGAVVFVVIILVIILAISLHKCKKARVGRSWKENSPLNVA
Description: flow cytometry on Macaca mulatta RF/6A cells.

The target in test [12] is T7, E. coli-derived TF ECD-His6 (Homo sapiens (Human), UniProt P13726 33-251).
T7 construct: The OmpA signal is not part of that entry; also called E.coli-derived TF protein; E. coli-derived TF-His
Briefly: protein ELISA, plate coated with E. coli-derived TF-His. (ELISA stands for enzyme-linked immunosorbent assay.)

What is called Kd is the constant that tells how readily two partners part at equilibrium. One may read the EC50 as the concentration needed to bring the measured effect to its halfway point. A lower EC50 goes with greater potency.

T2 sequence (P24055 other isoform, or with tags, fused parts or gaps): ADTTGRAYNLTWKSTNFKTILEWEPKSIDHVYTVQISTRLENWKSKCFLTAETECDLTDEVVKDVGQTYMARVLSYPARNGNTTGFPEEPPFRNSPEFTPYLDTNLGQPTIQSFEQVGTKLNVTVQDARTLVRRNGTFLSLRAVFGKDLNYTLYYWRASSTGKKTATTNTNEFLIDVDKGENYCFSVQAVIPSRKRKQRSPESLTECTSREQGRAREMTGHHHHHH

B1: 25A (antibody, V domains shown)
VH: QVQLVQSGAEVKKPGASVKVSCKASGYTFDVYGISWVRQAPGQGLEWMGWIAPYNGNTNYAQKLQGRVTMTTDTSTSTAYMELRSLRSDDTAVYYCARDAGTYSPFGYGMDVWGQGTTVTVSS
VL: DIQMTQSPSTLSASVGDRVTITCRASQSISSWLAWYQQKPGKAPKLLIYKASSLESGVPSRFSGSGSGTEFTLTISSLQPDDFATYYCQQFQSLPPFTFGGGTKVEIK
notes: Human anti-TF IgG1
Consider B1, for which, in [1], the “% FVIIa” value is 100%. For the same molecule, the “% FVIIa” value in test [2] worked out at 98%. For the same molecule, in test [3], the “% IL8, 2.56 nM Ab” value was determined as 43%; the “% IL8, 6.4 nM Ab” value stood at 11%; the “% IL8, 16 nM Ab” value turned out to be 10%; the “% IL8, 40 nM Ab” value is 8%. Moreover, the “% IL8, 100 nM Ab” value in test [3] was 9%. Further, the “% FVIIa” value in test [4] was 97%.

B2: 25G (antibody, human IgG1, kappa, V domains shown)
VH: QVQLVQSGAEVKKPGASVKVSCKASGYTFRSYGISWVRQAPGQGLEWMGWVAPYNGNTNYAQKLQGRVTMTTDTSTSTAYMELRSLRSDDTAVYYCARDAGTYSPYGYGMDVWGQGTTVTVSS
VL: DIQMTQSPSTLSASVGDRVTITCRASQSISSWLAWYQQKPGKAPKLLIYKASSLESGVPSRFSGSGSGTEFTLTISSLQPDDFATYYCQQFQSLPPFTFGGGTKVEIKR
notes: Human IgG1; also called antibody 25G
As for B2, the Kd in test [5] was 75.5 nM; in test [6], 26 nM.

B3: anti-TF antibody 25G (antibody, human IgG1, kappa, V domains shown)
VH: QVQLVQSGAEVKKPGASVKVSCKASGYTFRSYGISWVRQAPGQGLEWMGWVAPYNGNTNYAQKLQGRVTMTTDTSTSTAYMELRSLRSDDTAVYYCARDAGTYSPYGYGMDVWGQGTTVTVSS
VL: DIQMTQSPSTLSASVGDRVTITCRASQSISSWLAWYQQKPGKAPKLLIYKASSLESGVPSRFSGSGSGTEFTLTISSLQPDDFATYYCQQFQSLPPFTFGGGTKVEIKR
notes: Human IgG1
For the molecule B3, in [7], the “% 25A binding” value is 7%. In addition, in test [8], the “% GM-CSF, 2.56 nM antibody, MDA-MB-231 cells + FVIIa” value worked out at 77%; the “% GM-CSF, 6.4 nM antibody, MDA-MB-231 cells + FVIIa” value was determined as 39%; the “% GM-CSF, 16 nM antibody, MDA-MB-231 cells + FVIIa” value was found to be 32%; the “% GM-CSF, 40 nM antibody, MDA-MB-231 cells + FVIIa” value was 18%. The “% GM-CSF, 100 nM antibody, MDA-MB-231 cells + FVIIa” value in [8] amounted to 19%. Also, in [9], the “% 43Ea binding” value was determined as 3%.

B4: 25A (antibody, human IgG1, V domains shown)
VH: QVQLVQSGAEVKKPGASVKVSCKASGYTFDVYGISWVRQAPGQGLEWMGWIAPYNGNTNYAQKLQGRVTMTTDTSTSTAYMELRSLRSDDTAVYYCARDAGTYSPFGYGMDVWGQGTTVTVSS
VL: DIQMTQSPSTLSASVGDRVTITCRASQSISSWLAWYQQKPGKAPKLLIYKASSLESGVPSRFSGSGSGTEFTLTISSLQPDDFATYYCQQFQSLPPFTFGGGTKVEIK
notes: Human IgG1; also called antibody 25A
As to B4, the Kd in test [5] was determined as 50.5 nM; in test [6], 18.7 nM.

B5: anti-TF antibody 25A3 (antibody, human IgG1, kappa, V domains shown)
VH: QVQLVQSGAEVKKPGASVKVSCKASGYTFDVYGISWVRQAPGQGLEWMGWIAPYSGNTNYAQKLQGRVTMTTDTSTSTAYMELRSLRSDDTAVYYCARDAGTYSPFGYGMDVWGQGTTVTVSS
VL: DIQMTQSPSTLSASVGDRVTITCQASQSINNWLAWYQQKPGKAPKLLIYKAYNLESGVPSRFSGSGSGTEFTLTISSLQPDDFATYYCQLFQSLPPFTFGGGTKVEIKR
notes: Human IgG1
Consider B5, for which the EC50 in test [10] worked out at 0.47 nM; in [11] it was 0.27 nM; in test [12], 0.36 nM.

B6: anti-TF antibody 25G1 (antibody, human IgG1, kappa, V domains shown)
VH: QVQLVQSGAEVKKPGASVKVSCKASGYTFRSYGISWVRQAPGQGLEWMGWVAPYSGNTNYAQKLQGRVTMTTDTSTSTAYMELRSLRSDDTAVYYCARDAGTYSPYGYGMDVWGQGTTVTVSS
VL: DIQMTQSPSTLSASVGDRVTITCRASHSIDSWLAWYQQKPGKAPKLLIYKASYLESGVPSRFSGSGSGTEFTLTISSLQPDDFATYYCQLFQSLPPFTFGGGTKVEIKR
notes: Human IgG1
Take B6: the EC50 in test [10] was 0.42 nM; in [11] it was 0.27 nM; in test [12], 0.31 nM. For the same molecule, the “% GM-CSF, 2.56 nM antibody, MDA-MB-231 cells + FVIIa” value in test [8] stood at 48%.

B7: 25G1 (antibody, human IgG1, kappa, V domains shown)
VH: QVQLVQSGAEVKKPGASVKVSCKASGYTFRSYGISWVRQAPGQGLEWMGWVAPYSGNTNYAQKLQGRVTMTTDTSTSTAYMELRSLRSDDTAVYYCARDAGTYSPYGYGMDVWGQGTTVTVSS
VL: DIQMTQSPSTLSASVGDRVTITCRASHSIDSWLAWYQQKPGKAPKLLIYKASYLESGVPSRFSGSGSGTEFTLTISSLQPDDFATYYCQLFQSLPPFTFGGGTKVEIKR
notes: Human IgG1; also called antibody 25G1
B7: the Kd is 3.6 nM in test [5] and 2.6 nM in test [6].

B8: 25A5 (antibody, human IgG1, kappa, V domains shown)
VH: QVQLVQSGAEVKKPGASVKVSCKASGYTFDVYGISWVRQAPGQGLEWMGWIAPYSGNTNYAQKLQGRVTMTTDTSTSTAYMELRSLRSDDTAVYYCARDAGTYSPFGYGMDVWGQGTTVTVSS
VL: DIQMTQSPSTLSASVGDRVTITCRASESISNWLAWYQQKPGKAPKLLIYKAYSLEYGVPSRFSGSGSGTEFTLTISSLQPDDFATYYCQQFQKLPPFTFGGGTKVEIKR
notes: Human IgG1; also called antibody 25A5
B8: the Kd turned out to be 5.4 nM in test [5] and 5.2 nM in test [6].

B9: 25A5-T (antibody, human IgG1, kappa, V domains shown)
VH: QVQLVQSGAEVKKPGASVKVSCKASGYTFDAYGISWVRQAPGQGLEWMGWIAPYSGNTNYAQKLQGRVTMTTDTSTSTAYMELRSLRSDDTAVYYCARDAGTYSPFGYGMDVWGQGTTVTVSS
VL: DIQMTQSPSTLSASVGDRVTITCRASESISNWLAWYQQKPGKAPKLLIYKAYSLEYGVPSRFSGSGSGTEFTLTISSLQPDDFATYYCQQFQKLPPFTFGGGTKVEIKR
notes: Human IgG1
Consider B9, for which the dissociation constant Kd in test [5] was 5.4 nM; in test [6] it was 4.5 nM.

B10: 25G9 (antibody, human IgG1, kappa, V domains shown)
VH: QVQLVQSGAEVKKPGASVKVSCKASGYTFRSYGISWVRQAPGQGLEWMGWVAPYSGNTNYAQKLQGRVTMTTDTSTSTAYMELRSLRSDDTAVYYCARDAGTYSPYGYGMDVWGQGTTVTVSS
VL: DIQMTQSPSTLSASVGDRVTITCQASQSIDSWLAWYQQKPGKAPKLLIYSASYLESGVPSRFSGSGSGTEFTLTISSLQPDDFATYYCQRFQSLPPFTFGGGTKVEIKR
notes: Human IgG1; also called antibody 25G9
Consider B10, for which the Kd stood at 4.2 nM in test [5] and 3.3 nM in test [6].

B11: 43D7 (antibody, human IgG1, kappa, V domains shown)
VH: QVQLQQWGAGLLKPSETLSLTCAVYGGSLSGYYWSWIRQPPGKGLEWIGEIGASGSTRYNPSLKSRVTISVDTSKNQFSLKLSSVTAADTAVYYCARDTPYYYEGGYYYYMDVWGKGTTVTVSS
VL: EIVLTQSPGTLSLSPGERATLSCRASDSVDSSYLAWYQQKPGQAPRLLIYGAFSRANGIPDRFSGSGSGTDFTLTISRLEPEDFAVYYCQQAGVVPYTFGGGTKVEIKR
notes: Human IgG1; also called antibody 43D7
On to B11, for which the Kd came to 6.8 nM in [5] and 8.8 nM in test [6].

B12: 43D8 (antibody, human IgG1, kappa, V domains shown)
VH: QVQLQQWGAGLLKPSETLSLTCAVYGGSLSGYYWSWIRQPPGKGLEWIGEIGASGSTRYNPSLKSRVTISVDTSKNQFSLKLSSVTAADTAVYYCARDTPYYYEGGYYYYMDVWGKGTTVTVSS
VL: EIVLTQSPGTLSLSPGERATLSCRASQSVSSSFLAWYQQKPGQAPRLLIYGAYSRATGIPDRFSGSGSGTDFTLTISRLEPEDFAVYYCQQAGVVPYTFGGGTKVEIKR
notes: Human IgG1; also called antibody 43D8; 43D8 mAb
As for B12, the values for the Kd in [5] and in [6] were 7.7 nM and 19.2 nM, respectively.

These data come from patent US20240166765A1 (ICONIC THERAPEUTICS, published 2024).
